One molecule from article PMC4041439 (Nucleic Acids Research, 2014) can be followed below.

This assay concerns the target T1, Mms4 (S. cerevisiae, UniProt P38257 1-691).
T1 sequence (looked up): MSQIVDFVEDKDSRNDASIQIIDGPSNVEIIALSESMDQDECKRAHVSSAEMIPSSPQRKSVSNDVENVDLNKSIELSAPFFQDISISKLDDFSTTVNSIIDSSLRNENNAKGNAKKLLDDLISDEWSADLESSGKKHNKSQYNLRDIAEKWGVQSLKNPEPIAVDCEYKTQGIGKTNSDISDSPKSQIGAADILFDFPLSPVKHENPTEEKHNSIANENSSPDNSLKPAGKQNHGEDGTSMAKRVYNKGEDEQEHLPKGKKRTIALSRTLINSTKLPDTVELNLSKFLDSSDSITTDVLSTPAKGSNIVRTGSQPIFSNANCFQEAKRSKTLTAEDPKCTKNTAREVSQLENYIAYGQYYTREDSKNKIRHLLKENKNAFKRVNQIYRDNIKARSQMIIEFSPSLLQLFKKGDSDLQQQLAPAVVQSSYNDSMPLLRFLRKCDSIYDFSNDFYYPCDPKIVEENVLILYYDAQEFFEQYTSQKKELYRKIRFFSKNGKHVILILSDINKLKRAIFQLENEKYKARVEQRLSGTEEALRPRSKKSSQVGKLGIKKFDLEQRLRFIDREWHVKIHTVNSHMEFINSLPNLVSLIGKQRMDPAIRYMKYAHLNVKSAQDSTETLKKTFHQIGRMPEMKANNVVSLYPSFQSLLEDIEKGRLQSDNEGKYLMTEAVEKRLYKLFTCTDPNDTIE
Put plainly: cross-linking.

B1: Mus81 (enzyme, S. cerevisiae, UniProt Q04149 1-632, looked up)
chain: MELSSNLKDLYIEWLQELVDGLTPKQEQLKIAYEKAKRNLQNAEGSFYYPTDLKKVKGIGNTIIKRLDTKLRNYCKIHHISPVEAPSLTQTSSTRPPKRTTTALRSIVNSCENDKNEAPEEKGTKKRKTRKYIPKKRSGGYAILLSLLELNAIPRGVSKEQIIEVAGKYSDHCMTPNFSTKEFYGAWSSIAALKKHSLVLEEGRPKRYSLTEEGVELTKSLKTADGISFPKENEEPNEYSVTRNESSEFTANLTDLRGEYGKEEEPCDINNTSFMLDITFQDLSTPQRLQNNVFKNDRLNSQTNISSHKLEEVSDDQTVPDSALKAKSTIKRRRYNGVSYELWCSGDFEVFPIIDHREIKSQSDREFFSRAFERKGMKSEIRQLALGDIIWVAKNKNTGLQCVLNTIVERKRLDDLALSIRDNRFMEQKNRLEKSGCEHKYYLIEETMSGNIGNMNEALKTALWVILVYYKFSMIRTCNSDETVEKIHALHTVISHHYSQKDLIVIFPSDLKSKDDYKKVLLQFRREFERKGGIECCHNLECFQELMGKGDLKTVGELTIHVLMLVKGISLEKAVAIQEIFPTLNKILMAYKTCSSEEEAKLLMFNVLGDAPGAKKITKSLSEKIYDAFGKL
As for B1, the binding result is on record as “binds”.
